# Data taken from PMC4490436.
# No end group written: not given here. *: point of attachment. OAll = C=CCO*
# Columns and labels:
# [1] = biological target: CXCR4 receptor (human (endogenous in CCRF-CEM)) (UniProt P61073)
# [2] = biological target: CXCR4 receptor (human (endogenous in CCRF-CEM)) (UniProt P61073); remark: listed apart in the source
# Chain of UniProt P61073 (P61073 whole entry): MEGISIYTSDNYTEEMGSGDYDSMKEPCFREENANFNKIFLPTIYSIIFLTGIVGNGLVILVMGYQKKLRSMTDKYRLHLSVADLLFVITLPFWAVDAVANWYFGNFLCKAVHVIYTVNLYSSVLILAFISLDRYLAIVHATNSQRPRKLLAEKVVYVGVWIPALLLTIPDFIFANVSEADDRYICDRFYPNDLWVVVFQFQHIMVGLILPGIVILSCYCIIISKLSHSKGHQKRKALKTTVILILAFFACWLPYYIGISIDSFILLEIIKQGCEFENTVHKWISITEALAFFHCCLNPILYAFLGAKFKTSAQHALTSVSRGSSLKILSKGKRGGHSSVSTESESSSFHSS
"increase of the cAMP level in CCRF-CEM cells in the presence of CXCL12 (100 ng/mL) and forskolin (1 uM); PepE at 1 and 10 uM (20% at 1 uM), dose dependent [1] [%]",migration index of CCRF-CEM cells towards CXCL12 (100 ng/mL) in a Transwell assay; 1.75-fold without peptide [2] [fold],Binder
65,1.35,YGECPCE-OAll (cysteine pairing not given here) [PepE]
,1.55,YGECPCK-OAll (cysteine pairing not given here) [PepK]
